Reference: patent US20250019461A1 (HUMMINGBIRD BIOSCIENCE PTE, published 2025)
Values belong to the binder of their own block, whether it stands above or below them.

What was measured:
[1] = molecular target: T1, recombinant human HER3 polypeptide (His-tagged) (human, UniProt P21860 20-643, biotinylated in the HER2 (Example 4.1) and EGFR (Example 8.7) dimerisation ELISAs); experiment: plate ELISA of the EGFR:HER3 interaction: human EGFR-His coat, HER3-biotin 4 µg/ml and NRG 0.1 µg/ml with titrated antibody, avidin HRP detection; blocked partner EGFR-His
T1 construct: Soluble recombinant human HER3 preparations of the ELISA, BLI and dimerisation assays are gathered here; also called His-tagged human HER3; human HER3 polypeptide (Sino Biological); not shown: His tag

[2] = molecular target: T2, human HER3 expressed at the cell surface (human, UniProt P21860 20-1342); experiment: flow cytometry on HEK293 cells overexpressing human HER3 (HEK293 O/E H3), antibody 20 µg/ml, FITC anti-Fc secondary; same antibody on WT HEK293: 1.91
T2 construct: also called HEK293 HER3 O/E cells; HEK293 cells transfected with vector encoding human HER3

[3] = molecular target: T3, human HER2 (human, UniProt P04626 23-652); experiment: ELISA, plate coated with 0.1 µg/ml human HER2, antibody serially diluted
T3 construct: also called human HER2 (Sino Biological)

[4] = molecular target: T2, human HER3 expressed at the cell surface; experiment: flow cytometry on HEK293 cells overexpressing human HER3 (HEK293 O/E H3), antibody 20 µg/ml, FITC anti-Fc secondary; same antibody on WT HEK293: 0.60
[5] = molecular target: T4, human EGFR (human, UniProt P00533 25-645); experiment: ELISA, plate coated with 0.1 µg/ml human EGFR, antibody serially diluted
T4 construct: also called human HER1 (EGFR) (Sino Biological)

[6] = molecular target: T2, human HER3 expressed at the cell surface; experiment: flow cytometry on HEK293 cells overexpressing human HER3 (HEK293 O/E H3), antibody 20 µg/ml, FITC anti-Fc secondary; same antibody on WT HEK293: 0.60; remark: listed apart in the source
[7] = molecular target: T1, recombinant human HER3 polypeptide …; experiment: ELISA, plate coated with human HER3, antibody serially diluted

IC50 [1]: 54.2 nM
B1: MM-121 (antibody, V domains shown)
VH: EVQLLESGGGLVQPGGSLRLSCAASGFTFSAYNMRWVRQAPGKGLEWVSVIYPSGGATRYADSVKGRFTISRDNSKNTLYLQMNSLRAEDTAVYYCARGYYYYGMDVWGQGTLVTVSS
VL: QSVLTQPPSASGTPGQRVTISCSGSDSNIGRNYIYWYQQFPGTAPKLLIYRNNQRPSGVPDRISGSKSGTSASLAISGLRSEDEAEYHCGTWDDSLSGPVFGGGTKLTVL

% Parent (HER3 positive) [2]: 99.5%
B2: anti-HER3 antibody clone LJM716 (antibody, V domains shown)
VH: EVQLLESGGGLVQPGGSLRLSCAASGFTFSSYAMSWVRQAPGKGLEWVSAINSQGKSTYYADSVKGRFTISRDNSKNTLYLQMNSLRAEDTAVYYCARWGDEGFDIWGQGTLVTVSS
VL: DIQMTQSPSSLSASVGDRVTITCRASQGISNWLAWYQQKPGKAPKLLIYGASSLQSGVPSRFSGSGSGTDFTLTISSLQPEDFATYYCQQYSSFPTTFGQGTKVEIK

% Parent (HER3 positive) [4]: 99%
% Parent (HER3 positive) [6]: 99%
B3: anti-HER3 clone 10D1 IgG1 (antibody)
heavy: not shown
light: DIVMTQSQKFMSTSVGDRVSVTCKASQIVGSNVAWYQQKPGQSPKPLIYSASYRYSGVPDRFTASGSGTDFTLTITNVQSEDLAEYFCQQYSSHPLTFGAGTKLELKRTVAAPSVFIFPPSDEQLKSGTASVVCLLNNFYPREAKVQWKVDNALQSGNSQESVTEQDSKDSTYSLSSTLTLSKADYEKHKVYACEVTHQGLSSPVTKSFNRGEC
notes: Human-mouse chimeric IgG1 kappa; also called 10D1P; 10D1 (parental)
binding result [3]: no binding (tested: about log -6.7 M (10 µg/ml per paragraph 597))
binding result [5]: no binding (tested: about log -6.7 M (10 µg/ml per paragraph 597))

EC50 (read off the curve) [7]: ~6 ng/mL
B4: anti-HER3 clone 10D1_c91 IgG1 (antibody, V domains shown)
VH: QVQLQESGPGLVKPSQTLSLTCTVSGYYITSGYSWHWIRQHPGKGLEWIGSIRYSGGTDYNPSLKSLATISADTSKNQFSLKLSSVTAADTAVYYCARMTTAPWYPFDYWGQGTAVTVSS
VL: DIQMTQSPSSVSASVGDRVTITCKASQIVGSNVAWYQQKPGKAPMPLIYSASYGYSGVPSRFSGSGSGTDFTLTISSLQPEDFATYYCQQYSSHPLTFGQGTKLEIKR
notes: Humanised 10D1 variant, IgG1 kappa; also called [18]
